Experimental data as given in the DeepSol protein solubility set.

assay: soluble on expression in E. coli; label from the status in PepcDB or PDB records

| Sequence | soluble on expression in E. coli |
| --- | --- |
| MKKPKHDLTHVRHDPAHCLAPGLFRSLKRGDRKRCKLDVTYTFGEDESMRFVGFEPLGADDMRLLQGIVALGGPNGILLTPEPTSETGRQLRLFLEPRFEAIEQDGLVVRESLTKLLSETGMTDSGDNIKALKASLLRMSNVTILVTKGRRQAAFHLMSHAFDETDGRLWVALNPRIAEAILGHRPYARIDMAEVRVLQTDPARLMHQRLCGWIDPGKSGRVELDTLCGYVWPDEANAEAMKKRRQTARKALAELAAVGWVVNEYAKGKWEIKRPGPTATAPVYRRNVPLLPS | not soluble |
| APLATRQGKRPSKNLKARCSRKALHVNFKDMGWDDWIIAPLEYEAFHCEGLCEFPLRSHLEPTNHAVIQTLMNSMDPESTPPTCCVPTRLSPISILFIDSANNVVYKQYEDMVVESCGCR | soluble |
| MSRSLLTNETSELDLLDQRPFEQTDFDILKSYEAVVDGLAMLIGSHCEIVLHSLQDLKCSAIRIANGEHTGRKIGSPITDLALRMLHDMTGADSSVSKCYFTRAKSGVLMKSLTIAIRNREQRVIGLLCINMNLDVPFSQIMNTFIPPETPEVGSAVNFASSVEDLVTQTLEFTIEEVNADRNVSNNAKNRQIVLNLYEKGIFDIKDAINQVADRLNISKHTVYLYIRQFKSGDFQGQDK | not soluble |
| GMQKLTRINDFNEVLNSRKSVKVFDENYKIPREEMDEIITKATKAPSSVNMQPWRIAVVQSDEMKEKVKESFGFNSRQLTTSSAMLIIFGDLQNYEKAEQIYGDAVEQQLMTEDIKAQLLDWILPYYKNLSREGMKDIVNIDSSLMAMQLMLTAKAHGYDTNPIGGFDKENIADIIGYDSDRYVPVLAIAIGKKAQDAHDSVRLPIDDVREFL | soluble |
| MSLTKAQDHDAAVLYGYFRSSASYRVRIALNLKNIIVAQRYVHLRNGEQNLEAFRWINPAGMVPYWSEGEFNLGQSLAIIEYLDETHPEPPLLPKDPKARAIVREIAYAVACDIHPIGNLRILKRLTELGVDEVDRARWSKEWVEQGFAAIEARLAQTPGPFAYGDRPTLADICIVPQIFNARRFDADLAPFERIRQIEAEAMKLDAFVAAEPGRQPDAEGHHHHHH | soluble |
| MKRIGYARTTIIEDDLKNQLTTLQSFGCDDIFQETFDPQAEISVLDEVEKLLSAGDTLIVCKLHHLGKTTRQLTDFMKMLKEKQVDFVSISEGIDTHLPTGEAYFQLMESLSAMECALIKERTLVGLHKARENGKVGGRPKIDGRTVRKIRALYYENKETIQFISNKCGVSVGTCYKYINLPETDVERLYS | not soluble |
| MFSLSFPSSSSALLPSLVAFDSSRRLSLQPKKLNRLQSHLFSPQHLSFSQSNVSRYRAFCVSSSSPPEGTVSVVDFHEKDWSFLESMEIDSTEHTQKIERIIKAGELSESSRVLVSISSETFVDRLVESSPSQLLLIVHDSLFTLACIKEKYDKVKCWQGEMIYVPEKWSPLDAVFLYFLPALPFDLDELFKTLSQRCSSGARVVISHPQGRLGLEQQRKEFSDVVVSDLPDESTLSNVAEKHSFELTQFVDEQGLYLAVLKSSKQ | soluble |
| MGSDKIHHHHHHMQIDQIETFLDLLETQSFNRTADRLDVTQSTVSGRVKALEKALGERLFERSRSGTQPTTAALRFETHARVLRRAWADGQADVKPFGTAVMLRIGIQHDLIDNHVADWLAALRQALPECGFYVDGDYSTQMCRDLETGALDLGVVFTPRPSPDLYFESMGEVTYQMVSTAQTSLPQIDPTNYILPNYAPAFAQTHAALLPGLSLGSVSSGQAAAVRGLLIALGGTTYLPTEMVSALITEGIAHHVPGAPDITQPVFVAMHLRNRHRAGYRRMANVLRDRVGT | not soluble |
| MGSDKIHHHHHHMQFADFWYIVALSNQLQPNKVLPRTVLGEWLAIFRGEDGQPVALRDRCLHRNSRLSSGKICNGALQCPYHGWVYDGVGNVIAVPAEGNDFKPSPQRRAKCYATKEQDGYVYVRLADTPSVDFEPFSMPHYGQTGWETVRVINRFANNVTNCAENFIDIPHTAFVHPGVFRTSRQQKLEMTVERWNGSVLVEYRNENSNLGWYSRFLNLQSAEIKHSDRFYMPNITSVEYKMARNRHLFITSQSIPETDNSTLVYTDVTYNYGIWNKLARPFVRWTAQHIIRQDVEILGIQGEAIAKYGTQFYNTPADTIHIFVESIMAAISRGEDPRLLPNQSVKVTFWV | not soluble |
| GSHMASPPTHNAHNWRLGQAPANWYNDTYPLSPPQRTPAGIRYRIAVIADLDTESRAQEENTWFSYLKKGYLTLSDSGDKVAVEWDKDHGVLESHLAYKGRGMELSDLIVFNGKLYSVDDRTGVVYQIEGSKAVPWVILSDGDGTVEKGFKAEWLAVKDERLYVGGLGKEWTTTTGDVVNENPEWVKVVGYKGSVDHENWVSNYNALRAAAGIQPPGYLIHESACWSDTLQRWFFLPRRASQERYSEKDDERKGANLLLSASPDFGDIAVSHVGAVVPTHGFSSFKFIPNTDDQIIVALKSEEDSGRVASYIMAFTLDGRFLLPETKIGSVKYEGIEFI | soluble |
| VAWFTDEEGGRGRIEAGQLADLVVPDKDFFSCPEDDISFLVSELTMVGGRIVYAAGGFAALDDNPLPPAMPDWSPARTFKGYAAWGDPDGAGRHSLQRRAVAACGCANACGLHGHQHARAWGTALPVSDAKGFFGALGCSCWA | not soluble |
| MGSDKIHHHHHHMALEDLVILLVEDDPVFRSIVAAFLTNRGATVIEADDGQQGLERFSQHDFDIVLADLSMPILGGLDMLKQMIKRKPDTLSIVISGNQVMADVVEALRVGASDYLVKPVNDLCLIENAIRQCVGGSSQQDVQLEDLDELSYQELEEHLNLLEQNAEAAKSVQQQLFPPSVIDYPKAKIDYSLFKHDEVSAYFIDSVNVGERYLIMYMAHFHPQDNRCAFASVLLKSFVNQKLKQFRNDNTETVIEPFNMLSYLNERMSKSGLDIYVDIVYAVVELTHYRASIAQAGKGLRCYIRNEEGLMPLAMPDALQLGILEWGQPSTQFRNLMPGESLCVASSNIEHRDMLLNDEFVGLSYSPEVAPGGYVQMSF | not soluble |
| MSLAIGDILRKSARRFPDRVALTDGGRSVTYTELERDANRFANALVARGLKPGAKISTVCNNSIEFVKALFGIHRAGLVWVPINTMLGPDDMGYILDHAGVKVAVIDDNLHGQPERRAALEARGIDLIAINLAGKAADTGLPVFDQLIEGLSEIEPDVAFDDRDLAMIIYTSGTTSRPKGAMHCHLAVTMAVMSNAIEMQLSRKDGITGQFPLFHCAAHVLLLSYLIVGGQMAIMRGFDPVACMEAIQRNKLTVFIGLPLMYQVILDHPRRKEFDLSSLRCCIYTMAPMPRPLLERAIAELCPTFVQPSGQTEMYPATTMSQPDRQLARFGNYWGESTLVNETAIMDDAGNLLPPGEVGEIVHRGPNVMLGYYKDPEATEAARKFGWHHTGDLALIDEHGEVLFLDRKKDMIKSGGENVASIKIEETLLAHPSVMNAAVVGLPHPQWGEAVSGFVKLKPGASATEAEIVEHCKKHLGGFQVPKLLRIVDEMPMTATGKLRKVELRNQFTDHFMLGQTEGHHHHHH | soluble |
| MLDSKLKAPVFTVRTQGREYGEFVLEPLERGFGVTLGNPLRRILLSSIPGTAVTSVYIEDVLHEFSTIPGVKEDVVEIILNLKELVVRFLNPSLQTVTLLLKAEGPKEVKARDFLPVADVEIMNPDLHIATLEEGGRLNMEVRVDPGVGYVPAEKHGIKDRINAIPVDAVFSPVRRVAFQVEDTRLGQRTDLDKLTLRIWTDGSVTPLEALNQAVEILREHLTYFSNPQAAAVAAPEEAKEPEAPPEQEEELDLPLEELGLSTRVLHSLKEEGIESVRALLALNLKDLKNIPGIGERSLEEIKEALEKKGFTLKE | soluble |
| MLTEQQRRELDWEKTDGLMPVIVQHAVSGEVLMLGYMNPEALDKTIESGKVTFFSRTKQRLWTKGETSGNFLNVVNIAPDCDNDTLLVLANPIGPTCHKGTSSCFGDTAHQWLFLYQLEQLLAERKSADPETSYTAKLYASGTKRIAQKVGEEGVETALAATVHDRFELTNEASDLMYHLLVLLQDQDLDLTTVIENLRKRHQ | not soluble |
| MGSDKIHHHHHHMSRVGIPRSLFYYYYYPLWKSFFSDLGVEILTSAPSNRHTVERGIELAVDETCFPIKVYLGHVAELCREELDYLFIPRLVSVEARSYICPKFMGLPDIVRALIKETPPLIDITVDLSRDEKCFKKDIIRVGRLFTRQASRIQLAYQHGCEELRLCRSLASQGFTMEEAIKIWEGGAMEAEPETDLNIGVLGHGYSLYDERISMNLVKRLRAMNCKVLLPEHLGSEVVEAEAATVPKRVFWTLGRKMLGSALHLSQREDVDGIIYLACFGCGPDSLIGEIIERKVRDCKPFILLTVDEHSGEAGIITRLEAFCDMLRRRRNCGSESKLSPYGVSLHSFENTV | not soluble |
| MEQKNVRNFCIIAHVDHGKSTLADRLLEYTGAISEREKREQLLDTLDVERERGITVKMQAVRMFYKAKDGNTYKLHLIDTPGHVDFSYEVSRALAACEGALLLIDASQGIEAQTVANFWKAVEQDLVIIPVINKIDLPSADVDRVKKQIEEVLGLDPEEAILASAKEGIGIEEILEAIVNRIPPPKGDPQKPLKALIFDSYYDPYRGAVAFVRIFDGEVKPGDKIMLMSTGKEYEVTEVGAQTPKMTKFDKLSAGDVGYIAASIKDVRDIRIGDTITHAKNPTKEPVPGFQPAKPMVYAGIYPAEDTTYEELRDALEKYAINDAAIVYEPESSPALGMGFRVGFLGLLHMEIVQERLEREYGVKIITTAPNVIYRVKKKFTDEVIEVRNPMDFPDNAGLIEYVEEPFVLVTIITPKEYVGPIIQLCQEKRGIQKNMTYLDPNTVYLEYEMPLSEIIVDFHDKIKSISRGFASYDYEFIGYRPSDLIKLTVLINKKPVDALSFIVHADRAQKFARRVAEKLRETIPRQLFEVHIQVAKGGKVIASERIKPLRANVTAKCYGGDVTRKKKLLENQKEGKKRMKQFGKVQLPQEAFLSVLKVE | soluble |
| MGSDKIHHHHHHMPKLASIAPSMESTRPLLQPITVVNRQLQAHCHVMSHSHLWGQFVYASQGVLAVNTPAARYLVTPEQGVWVNSNISHSVTAITEVRLTSFYLDESQCQALPEQSCVLNVAPFLHALIQEARLIPSDFDWQGPRGRLLRLIRDWLSEAKNAPFHLPYSSHPKLMQLFGELQNNPANQDNIATWGQRLGASSRTLSRLIKAETGLSYRHWRQRLNLQLSLSLLAQGHSINHIADSLGYASPSAFIHMFKQQTGDSPARYRK | not soluble |
| MSLGQKGHKDSLYPCGGTPESSLHEALDQCMTALDLFLTNQFSEALSYLKPRTKESMYHSLTYATILEMQAMMTFDPQDILLAGNMMKEAQMLCQRHRRKSSVTDSFSSLVNRPTLGQFTEEEIHAEVCYAECLLQRAALTFLQDENMVSFIKGGIKVRNSYQTYKELDSLVQSEGHHHHHH | not soluble |
| MLCEIECRALSTAHTRLIHDFEPRDALTYLEGKNIFTEDHSELISKMSTRLERIANFLRIYRRQASELGPLIDFFNYNNQSHLADFLEDYIDFAINEPDLLRPVVIAPQFSRQMLDRKLLLGNVPKQMTCYIREYHVDRVIKKLDEMCDLDSFFLFLHGRAGSGKSVIASQALSKSDQLIGINYDSIVWLKDSGTAPKSTFDLFTDILLMLKSEDDLLNFPSVEHVTSVVLKRMICNALIDRPNTLFVFDDVVQEETIRWAQELRLRCLVTTRDVEISNAASQTCEFIEVTSLEIDECYDFLEAYGMPMPVGEKEEDVLNKTIELSSGNPATLMMFFKSCEPKTFEKMAQLNNKLESRGLVGVECITPYSYKSLAMALQRCVEVLSDEDRSALAFAVVMPPGVDIPVKLWSCVIPVDICSNEEEQLDDEVADRLKRLSKRGALLSGKRMPVLTFKIDHIIHMFLKHVVDAQTIANGISILEQRLLEIGNNNVSVPERHIPSHFQKFRRSSASEMYPKTTEETVIRPEDFPKFMQLHQKFYDSLKNFACC | soluble |
